Measurements reported in article PMC2137869.
Values joined by “and” are separate entries in the source; they are usually repeats but may differ in a detail not shown here. Identical values can stand only once.

Key:
[1] = molecular target: H chains of non-specific rabbit gamma2 globulin (rabbit); assay: sucrose density gradient ultracentrifugation
[2] = molecular target: H chains of rabbit gamma2 globulin, first Sephadex G-100 peak (Fraction H) (rabbit); assay: sucrose density gradient ultracentrifugation

per cent of the H chains in the 7S peak [1]: 60 per cent and 70 per cent
per cent of the I131 label (L chains) in the >7S fraction [2]: 9 per cent
Substance: L chains of non-specific rabbit gamma2 globulin
